Target: CPn0678–GFP (Chlamydia pneumoniae)
Experiment: FRET or BRET

Substance: mCherry–SNX9 (from UniProt Q9Y5X1 1-595) (natural protein)
- average donor fluorescence lifetime with the acceptor (FLIM-FRET): 2.6 ns
- reduction of donor fluorescence lifetime (FLIM-FRET): 256 ps

— paper PMC7007526
